Data on three molecules can be found in patent publication US20200102373A1 (COLORADO STATE UNIVERSITY RESEARCH FOUNDATION, published 2020).

For assay [1], the target named is T1, mitoNEET (Mito) fused to mCherry and a C-terminal smHA tag (Mito-mCh-smHA) (Homo sapiens (Human), UniProt Q9NZ45 1-33).
T1 construct: also called smHA tagged Mito
T1 peptide: YPYDVPDYA
As to the kind of experiment: live-cell imaging, U2OS cells; reference Mito-mCh-1×HA.

In assay [2] the target is T1, mitoNEET (Mito) fused to mCherry and a …. As to the kind of experiment: live-cell imaging, U2OS cells, FB-GFP fluorescence at mitochondria over background.
Assay [3] has as its target T2, mCherry-H2B without HA tag (mCh-H2B) (UniProt P06899 1-126). The assay can be described thus: nuclear to cytoplasmic fluorescence ratio of FB-GFP in living U2OS cells lacking the HA tag.
The target in assay [4] is T2, mCherry-H2B without HA tag (mCh-H2B). As to the kind of experiment: nuclear to cytoplasmic fluorescence ratio of the GFP-fused scFv in living U2OS cells with mCh-H2B lacking the HA tag.
Assay [5] has as its target T3, H2B-mCh-OrigTag.
T3 construct: not shown: Histone H2B, mCherry and the linkers between the parts
T3 peptide: MSLPGRWKPKM
As to the kind of experiment: live-cell fluorescence imaging of U2OS cells co-expressing the GFP-fused scFv and H2B-mCh-OrigTag; co-localization in the nucleus.

In assay [6] the target is T4, H2B-mCh-TrunTag.
T4 construct: not shown: Histone H2B, mCherry and the linkers between the parts
T4 peptide: LPGRWKPKM
The assay can be described thus: live-cell fluorescence imaging of U2OS cells co-expressing the GFP-fused scFv and H2B-mCh-TrunTag; co-localization in the nucleus.

B1: χ15F11^HA chimeric anti-HA scFv fused to mEGFP (HA frankenbody, FB-GFP), expressed in cells (scFv, not shown: large carriers)
scFv: MAEVKLVESGGGLVKPGGSLKLSCAASGFTFSSYGMSWVRQTPEKRLEWVATISRGGSYTYYPDSVKGRFTISRDNAKNTLYLQMSSLRSEDTAIYYCARRETYDEKGFAYWGQGTTLTVSSGGGGSGGGGSGGGGSDIVLTQSPASLTVSLGQRATISCKSSQSLLNSGNQKNYLTWYQQKPGQPPKLLIYWASTRESGIPARFSGSGSGTDFTLNIHPVEEEDAATYYCQNDNSHPLTFGAGTKLEIGGGGSGGGGSGGGGSGGGGSGGGGS
notes: also called 15F11-HA-FB; pCMV-15F11-HA-mEGFP
Turning to B1, the “Mito/Bg ratio of smHA tagged Mito against 1×HA tagged Mito” value in assay [1] worked out at 4.7 times. The “mitochondria to background fluorescent intensity ratio (Mito/Bg)” value in assay [2] came to 16.6 ratio. Besides, the binding result in assay [3] is “no binding”.

B2: χ2E2^HA chimeric anti-HA scFv fused to mEGFP (scFv, not shown: large carriers)
scFv: MAEVQLVESGGDLVKPGGSLKLSCAASGFTFSSYGMSWVRQTPDKRLEWVATISRGGSYTYYPDSVKGRFTISRDNAKNTLYLQMSSLKSEDTAMYYCARRETYDEKGFAYWGQGTSVTVSSGGGGSGGGGSGGGGSDIVLTQSPASLAVSLGQRATISCKSSQSLLNSGNQKNYLTWYQQKPGQPPKLLIYWASTRESGIPARFSGSGSGTDFTLNIHPVEEEDAATYYCQNDNSHPLTFGGGTKLEIGGGGSGGGGSGGGGSGGGGSGGGGS
notes: also called 2E2-HA-FB; pCMV-2E2-HA-mEGFP
Regarding B2, the binding result in assay [4] is reported as “no binding”.

B3: χ15F11^HIV chimeric anti-HIV protease scFv fused to GFP (scFv)
scFv: MAEVKLVESGGGLVKPGGSLKLSCAASGFTFSRFGMHWVRQTPEKRLEWVAYISSGSSTIYYADTVKGRFTISRDNAKNTLYLQMSSLRSEDTAIYYCARSGGIERYDGTYYVMDYWGQGTTLTVSSGGGGSGGGGSGGGGSDIVLTQSPASLTVSLGQRATISCRASESVDYYGKSFMNWYQQKPGQPPKLLIYAASNQGSGIPARFSGSGSGTDFTLNIHPVEEEDAATYYCQQSKEVPWTFGAGTKLEI
notes: also called 15F11-HIV-FB; anti-HIV protease frankenbody
Regarding B3, the binding result in assay [5] and in assay [6] was “binds” throughout.
